The results in this text go back to publication PMC7615752, “The histone chaperone SPT2 regulates chromatin structure and function in Metazoa” (Nature structural & molecular biology, 2023).

The target in the experiment is T1, recombinant histone H3.1–H4 tetramer (NEB, M2509S) (UniProt P68431 1-136; P62805 1-103).
T1 construct: histone H3.1 of the recombinant H3.1–H4 tetramer; histone H4 of the recombinant H3.1–H4 tetramer; As I recall the NEB product is the human tetramer; also called H3–H4; histone H3–H4; source: bought: NEB, M2509S (recombinant); copies: 2 + 2
Briefly: pull-down; 20 pmol recombinant H3.1–H4 tetramer covalently coupled to NHS-activated magnetic beads; 5 pmol full-length SPT2 in 20 mM Tris–HCl pH 8.0, 500 mM NaCl, 0.1% Triton X-100, 0.1 mM TCEP, 1.5 h at 4 °C; washes with 700 or 800 mM NaCl. The conditions noted are these: both partners purified.

B1: HsSPT2, full-length (human SPT2), His6-tagged (natural protein)
chain: MDFREILMIASKGQGVNNVPKRYSLAVGPPKKDPKVKGVQSAAVQAFLKRKEEELRRKALEEKRRKEELVKKRIELKHDKKARAMAKRTKDNFHGYNGIPIEEKSKKRQATESHTSQGTDREYEMEEENEFLEYNHAESEQEYEEEQEPPKVESKPKVPLKSAPPPMNFTDLLRLAEKKQFEPVEIKVVKKSEERPMTAEELREREFLERKHRRKKLETDGKLPPTVSKKAPSQKESVGTKLSKGSGDRHPSSKGMPLPHAEKKSRPSMANEKHLALSSSKSMPGERIKAGSGNSSQPSLREGHDKPVFNGAGKPHSSTSSPSVPKTSASRTQKSAVEHKAKKSLSHPSHSRPGPMVTPHNKAKSPGVRQPGSSSSSAPGQPSTGVARPTVSSGPVPRRQNGSSSSGPERSISGSKKPTNDSNPSRRTVSGTCGPGQPASSSGGPGRPISGSVSSARPLGSSRGPGRPVSSPHELRRPVSGLGPPGRSVSGPGRSISGSIPAGRTVSNSVPGRPVSSLGPGQTVSSSGPTIKPKCTVVSETISSKNIISRSSNGQMNGMKPPLSGYRAAQGPQRLPFPTGYKRQREYEEEDDDDDEYDSEMEDFIEDEGEPQEEISKHIREIFGYDRKKYKDESDYALRYMESSWKEQQKEEAKSLRLGMQEDLEEMRREEEEMQRRRAKKLKRR
notes: human SPT2 (gene SPTY2D1), full length; source: E. coli Rosetta 2(DE3) pLysS BL21, purified (NiNTA, Flag M2 beads, Ulp1 cleavage); not shown: 2xFlag-SUMO, N-terminal, cleaved; His6, C-terminal, kept
With B1, the binding result was “binds”.
